Results: US5580955A, “Fragments of neurofibromin (NF1) and method to reverse activated ras induced malignant transformation in mammalian cells” (Ludwig Institute for Cancer Research, priority 1995, dated 1996)

How the values were obtained:
[1] = stability of GAP activity to freezing/thawing or storage; format: physicochemical; details: freezing/thawing or storage at 4° C. for 6 months
[2] = tested on: c-HaRas protein; experiment: Ras GTPase stimulating activity: hydrolysis of [gamma-32P] GTP bound to c-HaRas protein, by GST fusion NF1 mutants; format: biochemical, murine
Source text: N- and C- terminal deletion mutants were constructed by subcloning the corresponding PCR DNA fragments into the bacterial expression vector pGEX-2TH, as described in Maruta et al., supra. FIG. 4 sets forth the DNA fragments inserted into the expression vector. The number following NF of each mutant indicates the total amino acid residues included. The DNA fragments inserted include the DNA for human type I NF357, human type II NF1-GRD (amino acid residues 1355 to 1531 in addition to the insert of 21 amino acids) and murine c-HaRas (residues 1-189). The type II-specific insert of 21 amino acids is indicated by the number 21 above a triangle following codon 1371. This 21 amino acid insert is set forth in SEQ ID NO: 2. The solid rectangle indicates the GAP active center of 56 amino acids, whereas the shaded rectangle indicates a supporting domain of 22 amino acids.
The expression vectors were transfected into E.coli and the protein expressed as GST fusion proteins. The fusion proteins were thereafter purified from E.coli as glutathione S-transfeRase fusion proteins and affinity-purified on a glutathione (GSH)-agarose column, as described in Maruta, et al., supra.
The purified proteins were then screened for Ras GTPase stimulating activity. The assay was carried out for each of the NF357 deletion mutants.
The hydrolysis of [gamma-^32 P] GTP bound to c-HaRas protein was determined by incubating with bound protein at 25° C. for 20 minutes in the presence or absence of each NF1 mutant preparation in 100 ul of a buffer containing 50 mMTris-HCl, pH 7.5, 15 mMMgCl2, 2.5 mM EDTA, 3 mM ATP, 1 mM dithiothreitol (DTT) and 0.5 mg/ml bovine serum albumin (BSA), then precipitating the unhydrolyzed [gamma-32P] GTP with charcoal, and finally measuring the radioactivity of the [gamma-32P] inorganic phosphate in the supernatant, as described previously, Maruta et al., supra. Protein concentrations were determined by the Bradford method with BSA as a standard.

Activation (fold), Ras GTPase activation ([2]; 20 ug/ml NF1 mutants, 25° C., 20 minutes) [fold] | EC50, concentration required for 50% hydrolysis of GTP bound Ras ([2]; 25° C., 20 minutes) [µg/mL] | Molecule | GAP activity after treatment/storage [1] | Ras GTPase stimulation (in words) [2] | reduction of GTPase activity relative to NF91 ([2]; deletion of the C-terminal 13 amino acids from NF91) [fold]
– | – | GAP1C: the 709-1044 amino acid C-terminal GTPase activating domain of GAP1 (protein, UniProt P20936 709-1044, looked up, fragment) RARYSMEKIMPEEEYSEFKELILQKELHVVYALSHVCGQDRTLLASILLRIFLHEKLESLLLCTLNDREISMEDEATTLFRATTLASTLMEQYMKATATQFVHHALKDSILKIMESKQSCELSPSKLEKNEDVNTNLTHLLNILSELVEKIFMASEILPPTLRYIYGCLQKSVQHKWPTNTTMRTRVVSGFVFLRLICPAILNPRMFNIISDSPSPIAARTLILVAKSVQNLANLVEFGAKEPYMEGVNPFIKSNKHRMIMFLDELGNVPELPDTTEHSRTDLSRDLAALHEICVAHSDELRTLSNERGAQQHVLKKLLAITELLQQKQNQYTKTN | completely inactivated | – | –
6 | 25 | NF78: NF1 fragment, amino acid residues 1441 to 1518 (protein) RPFNDFVKSNFDAARRFFLDIASDCPTSDAVNHSLSFISDGNVLALHRLLWNNQEKIGQYLSSNRDHKAVGRRPFDKM | not significantly affected | still able to stimulate Ras GTPase activity | 2.5
